According to PMC5683647, “Comparison of histone-like HU protein DNA-binding properties and HU/IHF protein sequence alignment”:

Tests used:
[1] = system: HU (Mycoplasma gallisepticum); experiment: EMSA; conditions: 20 mM Tris-HCl pH 8.0, 7% glycerol, 40 mM NaCl (dsDNA length series, 200 nM DNA, gel 50 mM Tris-borate) or 150 mM NaCl (distorted structures, 10.5 nM DNA, gel …)
HU [2] = target: T1, HU (Neisseria gonorrhoeae, UniProt Q5F8J6 1-89); experiment: EMSA; conditions: 20 mM Tris-HCl pH 8.0, 7% glycerol, 40 mM NaCl (dsDNA length series, 200 nM DNA, gel 50 mM Tris-borate) or 150 mM NaCl (distorted structures, 10.5 nM DNA, gel …)
T1 sequence: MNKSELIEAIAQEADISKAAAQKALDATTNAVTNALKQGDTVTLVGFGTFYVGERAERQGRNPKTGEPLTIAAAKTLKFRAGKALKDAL

[3] = system: HU (Spiroplasma melliferum); experiment: EMSA; conditions: 20 mM Tris-HCl pH 8.0, 7% glycerol, 40 mM NaCl (dsDNA length series, 200 nM DNA, gel 50 mM Tris-borate) or 150 mM NaCl (distorted structures, 10.5 nM DNA, gel …)
[4] = target: T2, HU (Mycoplasma gallisepticum) (UniProt A0A0F6CKR5); experiment: EMSA; conditions: 20 mM Tris-HCl pH 8.0, 150 mM NaCl, 7% glycerol; 15 min; labelled DNA 10.5 nM; gel in 100 mM Tris-borate; temperature not stated; low values mean tight binding
T2 sequence: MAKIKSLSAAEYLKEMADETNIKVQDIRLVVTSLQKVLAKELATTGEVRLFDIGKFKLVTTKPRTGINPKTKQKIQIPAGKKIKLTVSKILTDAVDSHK

[5] = target: T3, HU (Neisseria gonorrhoeae) (UniProt Q5F8J6); experiment: EMSA; conditions: 20 mM Tris-HCl pH 8.0, 150 mM NaCl, 7% glycerol; 15 min; labelled DNA 10.5 nM; gel in 100 mM Tris-borate; temperature not stated; low values mean tight binding
T3 sequence: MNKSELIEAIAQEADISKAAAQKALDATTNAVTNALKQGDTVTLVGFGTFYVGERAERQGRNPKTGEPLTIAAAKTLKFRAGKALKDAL

[6] = target: T4, HU (Spiroplasma melliferum) (UniProt A0ABX5UAT3); experiment: EMSA; conditions: 20 mM Tris-HCl pH 8.0, 150 mM NaCl, 7% glycerol; 15 min; labelled DNA 10.5 nM; gel in 100 mM Tris-borate; temperature not stated; low values mean tight binding
T4 sequence: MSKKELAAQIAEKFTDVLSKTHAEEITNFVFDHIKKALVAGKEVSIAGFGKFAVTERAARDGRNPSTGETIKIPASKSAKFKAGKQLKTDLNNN

[7] = target: T5, HU alpha (Escherichia coli) (UniProt P0ACF0); experiment: EMSA; conditions: 20 mM Tris-HCl pH 8.0, 150 mM NaCl, 7% glycerol; 15 min; labelled DNA 10.5 nM; gel in 100 mM Tris-borate; temperature not stated; low values mean tight binding
T5 sequence: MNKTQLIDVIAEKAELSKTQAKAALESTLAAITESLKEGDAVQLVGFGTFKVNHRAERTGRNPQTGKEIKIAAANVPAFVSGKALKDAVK

HU alpha [8] = target: T6, HU alpha (Escherichia coli, UniProt P0ACF0 1-90); experiment: EMSA; 40 mM NaCl; 20 mM Tris-HCl pH 8.0, 7% glycerol, 40 mM NaCl (dsDNA length series, 200 nM DNA, gel 50 mM Tris-borate) or 150 mM NaCl (distorted structures, 10.5 nM DNA, gel 100 mM Tris-borate); 15 min, temperature not stated; conditions: protein: recombinant; tags: N-terminal 6xHisTEV removed by TEV protease; chain copies: 2; label: 5'-HEX; blunt
HU [9] = target: T1, HU; experiment: EMSA; 40 mM NaCl; 2 complexes; 20 mM Tris-HCl pH 8.0, 7% glycerol, 40 mM NaCl (dsDNA length series, 200 nM DNA, gel 50 mM Tris-borate) or 150 mM NaCl (distorted structures, 10.5 nM DNA, gel 100 mM Tris-borate); 15 min, temperature not stated; conditions: protein: recombinant; tags: N-terminal 6xHisTEV removed by TEV protease; chain copies: 2; label: 5'-HEX; blunt
HU [10] = target: T1, HU; experiment: EMSA; 40 mM NaCl; 3 complexes; 20 mM Tris-HCl pH 8.0, 7% glycerol, 40 mM NaCl (dsDNA length series, 200 nM DNA, gel 50 mM Tris-borate) or 150 mM NaCl (distorted structures, 10.5 nM DNA, gel 100 mM Tris-borate); 15 min, temperature not stated; conditions: protein: recombinant; tags: N-terminal 6xHisTEV removed by TEV protease; chain copies: 2; label: 5'-HEX; blunt
HU [11] = target: T1, HU; experiment: EMSA; 20 mM Tris-HCl pH 8.0, 150 mM NaCl, 7% glycerol; 15 min; labelled DNA 10.5 nM; gel in 100 mM Tris-borate; temperature not stated; conditions: protein: recombinant, tags: N-terminal 6xHisTEV removed by TEV protease, chain copies: 2, label: 5'-HEX on strand 1
HU alpha [12] = target: T6, HU alpha; experiment: as above; conditions: protein: recombinant, tags: N-terminal 6xHisTEV removed by TEV protease, chain copies: 2, label: 5'-HEX on strand 1
HU [13] = target: HU (Mycoplasma gallisepticum, UniProt A0A0F6CKR5 1-99); experiment: as above; conditions: protein: recombinant, tags: N-terminal 6xHisTEV removed by TEV protease, chain copies: 2, label: 5'-HEX on strand 1
HU [14] = target: T7, HU (Spiroplasma melliferum, UniProt A0ABX5UAT3 1-94); experiment: as above; conditions: protein: recombinant, tags: N-terminal 6xHisTEV removed by TEV protease, chain copies: 2, label: 5'-HEX on strand 1
T7 sequence: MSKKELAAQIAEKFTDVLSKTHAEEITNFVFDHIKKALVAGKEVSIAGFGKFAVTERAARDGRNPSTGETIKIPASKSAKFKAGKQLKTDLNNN

HU [15] = target: T1, HU; experiment: EMSA; 150 mM NaCl; 20 mM Tris-HCl pH 8.0, 7% glycerol, 40 mM NaCl (dsDNA length series, 200 nM DNA, gel 50 mM Tris-borate) or 150 mM NaCl (distorted structures, 10.5 nM DNA, gel 100 mM Tris-borate); 15 min, temperature not stated; conditions: protein: recombinant; tags: N-terminal 6xHisTEV removed by TEV protease; chain copies: 2; label: 5'-HEX on strand 1; four-way junction 1:2 2:3 3:4 4:1
HU [16] = target: T1, HU; experiment: EMSA; 40 mM NaCl; 4 complexes; 20 mM Tris-HCl pH 8.0, 7% glycerol, 40 mM NaCl (dsDNA length series, 200 nM DNA, gel 50 mM Tris-borate) or 150 mM NaCl (distorted structures, 10.5 nM DNA, gel 100 mM Tris-borate); 15 min, temperature not stated; conditions: protein: recombinant; tags: N-terminal 6xHisTEV removed by TEV protease; chain copies: 2; label: 5'-HEX; blunt
HU alpha [17] = target: T6, HU alpha; experiment: EMSA; 40 mM NaCl; 3 complexes; 20 mM Tris-HCl pH 8.0, 7% glycerol, 40 mM NaCl (dsDNA length series, 200 nM DNA, gel 50 mM Tris-borate) or 150 mM NaCl (distorted structures, 10.5 nM DNA, gel 100 mM Tris-borate); 15 min, temperature not stated; conditions: protein: recombinant; tags: N-terminal 6xHisTEV removed by TEV protease; chain copies: 2; label: 5'-HEX; blunt
[18] = four-way junction 1:2 2:3 3:4 4:1
[19] = duplex with 7 unpaired A in strand 2
[20] = duplex with 3 unpaired A in strand 2
[21] = duplex with 1 unpaired A in strand 2

Molecule: DNA invasion (inv)
- binding signal (fold affinity vs nicked DNA) [1]: 20
- binding signal (fold affinity vs nicked DNA) (HU [2]): 5

Molecule: AGTCTAGAGTGCAGTTGAGTCCTTGCTACGACGGATCCCTTAGGTCAG / CTGACCTAAGGGATCCGTCGTAGCAAGGGGCTGATACCGGAAGCTTCT / AGAAGCTTCCGGTATCAGCCTGAGCGGTGGTTGAATTCCT / AGGAATTCAACCACCGCTCAACTCAACTGCACTCTAGACT [four-way junction (J)]
- binding signal (fold affinity vs nicked DNA) [1]: 10

Molecule: AGTCTAGAGTGCAGTTGAGTCCTTGCTACGACGGATCCCTTAGGTCAG / CTGACCTAAGGGATCCGTCGTAGCAAGAGACTCAACTGCACTCTAGACT [bulge A1]
- Kd [1]: 132 nM
- Kd [3]: 35 nM

Molecule: AGTCTAGAGTGCAGTTGAGTCCTTGCTACGACGGATCCCTTAGGTCAG (double strand) [D48 dsDNA (ds)]
- Kd [4]: 440 nM
- Kd [5]: 1100 nM
- Kd [6]: 117 nM
- Kd [7]: 293 nM

B1: D21 dsDNA (dsDNA)
DNA 1: AGTCTAGAGTGCAGTTGAGTC
DNA 2: GACTCAACTGCACTCTAGACT
- binding result (HU alpha [8]): binds
- binding result (HU [9]): binds

B2: D27 dsDNA (dsDNA)
DNA 1: AGTCTAGAGTGCAGTTGAGTCCTTGCT
DNA 2: AGCAAGGACTCAACTGCACTCTAGACT
- binding result (HU [10]): binds

B3: four-way junction (J) (structured_DNA)
DNA 1: AGTCTAGAGTGCAGTTGAGTCCTTGCTACGACGGATCCCTTAGGTCAG
DNA 2: CTGACCTAAGGGATCCGTCGTAGCAAGGGGCTGATACCGGAAGCTTCT
DNA 3: AGAAGCTTCCGGTATCAGCCTGAGCGGTGGTTGAATTCCT
DNA 4: AGGAATTCAACCACCGCTCAACTCAACTGCACTCTAGACT
- Kd (HU [11]; [18]): 110 ± 25 nM
- Kd (HU alpha [12]; [18]): 44 ± 10 nM
- Kd (HU [13]; [18]): 26 ± 6 nM
- Kd (HU [14]; [18]): 35 ± 8 nM
- binding signal (HU [15]): 4 fold affinity vs nicked DNA

B4: overhang (ov) (structured_DNA)
DNA 1: AGTCTAGAGTGCAGTTGAGTCCTTGCTACGACGGATCCCTTAGGTCAG
DNA 2: ACTCAACTGCACTCTAGACT
- Kd (HU [11]; 3' overhang 28 nt): 120 ± 25 nM
- Kd (HU alpha [12]; 3' overhang 28 nt): 50 ± 15 nM
- Kd (HU [13]; 3' overhang 28 nt): 30 ± 8 nM
- Kd (HU [14]; 3' overhang 28 nt): 45 ± 10 nM

B5: nicked DNA (n) (structured_DNA)
DNA 1: AGTCTAGAGTGCAGTTGAGTCCTTGCTACGACGGATCCCTTAGGTCAG
DNA 2: CTGACCTAAGGGATCCGTCGTAGCAAGG
DNA 3: ACTCAACTGCACTCTAGACT
- Kd (HU [11]; nick 1:2 1:3): 440 ± 100 nM
- Kd (HU alpha [12]; nick 1:2 1:3): 88 ± 20 nM
- Kd (HU [13]; nick 1:2 1:3): 264 ± 70 nM
- Kd (HU [14]; nick 1:2 1:3): 35 ± 8 nM

B6: bulge A7 (structured_DNA)
DNA 1: AGTCTAGAGTGCAGTTGAGTCCTTGCTACGACGGATCCCTTAGGTCAG
DNA 2: CTGACCTAAGGGATCCGTCGTAGCAAGAAAAAAAGACTCAACTGCACTCTAGACT
- Kd (HU [11]; [19]): 220 ± 60 nM
- Kd (HU alpha [12]; [19]): 44 ± 10 nM
- Kd (HU [13]; [19]): 44 ± 12 nM
- Kd (HU [14]; [19]): 12 ± 4 nM

B7: bulge A3 (structured_DNA)
DNA 1: AGTCTAGAGTGCAGTTGAGTCCTTGCTACGACGGATCCCTTAGGTCAG
DNA 2: CTGACCTAAGGGATCCGTCGTAGCAAGAAAGACTCAACTGCACTCTAGACT
- Kd (HU [11]; [20]): 440 ± 120 nM
- Kd (HU alpha [12]; [20]): 88 ± 20 nM
- Kd (HU [13]; [20]): 132 ± 30 nM
- Kd (HU [14]; [20]): 35 ± 8 nM

B8: bulge A1 (structured_DNA)
DNA 1: AGTCTAGAGTGCAGTTGAGTCCTTGCTACGACGGATCCCTTAGGTCAG
DNA 2: CTGACCTAAGGGATCCGTCGTAGCAAGAGACTCAACTGCACTCTAGACT
- Kd (HU [11]; [21]): 440 ± 120 nM
- Kd (HU alpha [12]; [21]): 88 ± 20 nM
- Kd (HU [13]; [21]): 132 ± 30 nM
- Kd (HU [14]; [21]): 35 ± 8 nM

B9: D36 dsDNA (dsDNA)
DNA 1: AGTCTAGAGTGCAGTTGAGTCCTTGCTACGACGGAT
DNA 2: ATCCGTCGTAGCAAGGACTCAACTGCACTCTAGACT
- binding result (HU alpha [8]): binds
- binding result (HU [16]): binds

B10: D29 dsDNA (dsDNA)
DNA 1: AGTCTAGAGTGCAGTTGAGTCCTTGCTAC
DNA 2: GTAGCAAGGACTCAACTGCACTCTAGACT
- binding result (HU alpha [17]): binds
